Assay results reported in PMC5656576.

B1: 165 nt model vRNA (ssRNA)
RNA: AGUAGAAACAAGGUCGUUUUUAAACUAUUCGACACUAAUUGAUGGCCAUCCGAAUUUAUGGUCCACGGUGGUUUUUGUGAGUAUCUCGCGGGUGCGAGACUGCGACAUUAGAUUUCUUAGUUCUUUUAUUCUUUCCAUAUUGAAUAUAAUUGACCUGCUUUCGCU
B2: 53 nt model vRNA (ssRNA)
RNA: AGUAGAAACAAGGGUGUUUUUUCAUAUCAUUUAAACUUCACCCUGCUUUUGCU

What was measured:
[1] = target: NP in preformed NP-UAP56 complex (Influenza A virus, UniProt P03466 1-498); assay: EMSA; conditions: protein: recombinant; tags: C-terminal His tag (encoded in primer); chain copies: 6; label: 32P; single strand; partly complementary ends
NP in preformed NP-UAP56 complex, sequence (P03466 whole entry, one chain of several): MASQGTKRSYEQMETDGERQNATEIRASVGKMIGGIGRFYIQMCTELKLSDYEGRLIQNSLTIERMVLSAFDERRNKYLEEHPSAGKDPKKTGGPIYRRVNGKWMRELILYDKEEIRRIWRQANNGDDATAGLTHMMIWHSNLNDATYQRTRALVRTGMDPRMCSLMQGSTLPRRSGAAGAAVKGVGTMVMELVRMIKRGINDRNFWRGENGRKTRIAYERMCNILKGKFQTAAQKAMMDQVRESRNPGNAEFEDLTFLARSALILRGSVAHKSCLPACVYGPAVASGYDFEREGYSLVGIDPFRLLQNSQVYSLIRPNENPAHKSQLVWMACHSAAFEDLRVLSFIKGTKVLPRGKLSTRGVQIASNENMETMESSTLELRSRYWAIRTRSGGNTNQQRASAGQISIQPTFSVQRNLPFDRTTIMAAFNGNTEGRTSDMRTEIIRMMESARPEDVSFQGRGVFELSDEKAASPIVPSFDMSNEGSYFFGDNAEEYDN

[2] = target: NP (nucleoprotein), His-tagged (Influenza A virus, UniProt P03466 1-498); assay: EMSA; conditions: protein: recombinant; tags: C-terminal His tag (encoded in primer); label: 32P; single strand; partly complementary ends
NP (nucleoprotein), His-tagged, sequence (P03466 whole entry): as the sequence (P03466 whole entry, one chain of several) above

UAP56 [3] = target: T1, UAP56 (UniProt Q13838 1-428); assay: EMSA; UAP56 alone, 0.8-7.2 pmol; conditions: protein: recombinant; tags: GST tag removed with PreScission protease; chain copies: 2; label: 32P; single strand; partly complementary ends
T1 sequence (Q13838 whole entry): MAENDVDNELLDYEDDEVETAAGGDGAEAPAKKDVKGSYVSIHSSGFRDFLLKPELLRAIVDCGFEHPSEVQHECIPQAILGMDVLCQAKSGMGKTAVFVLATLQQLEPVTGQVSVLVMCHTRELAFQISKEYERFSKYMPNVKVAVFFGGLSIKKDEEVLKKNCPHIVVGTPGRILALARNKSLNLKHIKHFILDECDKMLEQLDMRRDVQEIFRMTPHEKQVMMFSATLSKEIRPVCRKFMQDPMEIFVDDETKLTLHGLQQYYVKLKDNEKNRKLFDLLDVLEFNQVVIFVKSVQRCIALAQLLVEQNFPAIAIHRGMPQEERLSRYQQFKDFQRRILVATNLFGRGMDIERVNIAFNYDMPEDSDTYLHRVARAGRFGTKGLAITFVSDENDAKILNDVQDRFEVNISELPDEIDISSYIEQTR

UAP56 [4] = target: T1, UAP56; assay: EMSA; conditions: protein: recombinant; tags: GST tag removed with PreScission protease; chain copies: 2; label: 32P; single strand; partly complementary ends

Row | Binder | binding result [1] | binding result [2] | binding result (UAP56 [3]) | binding result (UAP56 [4])
1 | B1 | binds | binds | no binding | 
2 | B2 | binds | binds |  | no binding
